From patent US20200354430A1 (OPKO BIOLOGICS, published 2020)

Assays:
MOD-5014/TF complex [1] = target: MOD-5014/TF complex (UniProt P13726); assay: cell-based or functional assay
[2] = target: MOD-5000 (commercial recombinant hFVIIa, NovoSeven) (UniProt P08709)
MOD-5000/TF complex [3] = target: MOD-5000/TF complex (UniProt P08709)
[4] = tested on: MOD-5014 (activated CTP-modified human Factor VII, FVIIa-CTP3)
MOD-5014/TF complex [5] = target: MOD-5014/TF complex (UniProt P13726)
MOD-5000/TF complex [6] = target: MOD-5000/TF complex (UniProt P08709); assay: cell-based or functional assay
[7] = target: T1, Tissue factor (TF), P13726
T1 chain: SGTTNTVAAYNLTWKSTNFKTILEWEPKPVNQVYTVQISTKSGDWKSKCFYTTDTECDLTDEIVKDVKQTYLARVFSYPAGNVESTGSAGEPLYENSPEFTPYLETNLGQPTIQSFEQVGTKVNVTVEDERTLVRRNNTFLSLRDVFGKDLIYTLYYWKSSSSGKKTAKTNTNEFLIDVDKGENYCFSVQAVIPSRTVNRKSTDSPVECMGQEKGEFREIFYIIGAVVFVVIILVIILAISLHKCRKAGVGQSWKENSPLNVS

[8] = target: T2, MOD-5014 (activated CTP-modified human Factor VII, FVIIa-CTP3) (human, UniProt P08709 61-212, O-glycans on the CTP serines, sialylated; N-glycans (positions not given); gamma-carboxyglutamic acid (Gla) residues (highly gamma carboxylated; positions not given)); assay: titration of FVIIa (0-2 nM) on fixed TF (10 pM), read out as rate of FX activation (Pefachrome FXa)
T2 construct: also called FVIIa-CTP-CTP-CTP; FVIIa-3*CTP
T2 sequence (light): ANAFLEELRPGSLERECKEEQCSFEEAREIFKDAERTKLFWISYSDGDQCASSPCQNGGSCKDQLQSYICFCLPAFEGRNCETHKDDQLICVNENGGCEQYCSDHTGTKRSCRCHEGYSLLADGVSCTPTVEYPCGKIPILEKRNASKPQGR
T2 sequence (heavy): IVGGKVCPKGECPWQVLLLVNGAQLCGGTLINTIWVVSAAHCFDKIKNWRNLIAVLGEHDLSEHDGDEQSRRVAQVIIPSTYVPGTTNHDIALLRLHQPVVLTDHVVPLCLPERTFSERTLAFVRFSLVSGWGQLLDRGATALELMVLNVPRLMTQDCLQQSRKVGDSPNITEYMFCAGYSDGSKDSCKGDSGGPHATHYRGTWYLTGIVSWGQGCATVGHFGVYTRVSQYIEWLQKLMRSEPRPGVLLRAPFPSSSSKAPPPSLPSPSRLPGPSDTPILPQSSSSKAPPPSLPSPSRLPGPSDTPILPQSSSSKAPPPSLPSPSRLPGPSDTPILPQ
Excerpt: Cleavage of synthetic substrate is converted to FXa concentration by a standard curve.

“tissue factor pathway inhibitor (TFPI) (from UniProt P10646 29-304)” showed a sensitivity to TFPI inhibition of FXa generation relative to MOD-5000 (MOD-5014/TF complex [1]) of 124%.

Work on Factor X (FX) yielded a Km of FX activation by lipid-bound FVIIa without TF [2] of 0.878 µM, a Vmax of FX activation by lipid-bound FVIIa without TF [2] of 0.253 nM FXa/min and a Km of FX activation by FVIIa/TF (MOD-5000/TF complex [3]) of 0.14 µM. For the same molecule, the Vmax of FX activation by FVIIa/TF as a function of FX concentration (MOD-5000/TF complex [3]) was 1.78 nM FXa/min, the Km of FX activation by lipid-bound FVIIa without TF [4] was 0.848 µM and the Vmax of FX activation by lipid-bound FVIIa without TF [4] was 0.115 nM FXa/min. The “rate of FX activation on a lipid surface in the absence of TF relative to MOD-5000” value [4] was “The rate of FX activation on a lipid surface in the absence of TF is lower for MOD-5014 (45%) relative to MOD-5000”, the Km of FX activation by FVIIa/TF (MOD-5014/TF complex [5]) was 0.12 µM and the Vmax of FX activation by FVIIa/TF as a function of FX concentration (MOD-5014/TF complex [5]) was 1.64 nM FXa/min. For the same molecule, the “turnover of FX relative to MOD-5000” value (MOD-5014/TF complex [5]) was “When bound to TF, MOD-5014 had a slightly reduced turnover of FX (92%) relative to MOD-5000”.

“anti-thrombin (AT) (from UniProt P01008 33-464)” showed a k, rate constant of loss of FVIIa/TF activity with AT and heparin (MOD-5000/TF complex [6]) of 0.354 min⁻¹, a k, rate constant of loss of FVIIa/TF activity with AT and heparin (MOD-5014/TF complex [1]) of 0.217 min⁻¹ and a rate of inhibition by AT relative to MOD-5000 (MOD-5014/TF complex [1]) of 62%.

B1: MOD-5014 (activated CTP-modified human Factor VII, FVIIa-CTP3) (protein)
chain 1: ANAFLEELRPGSLERECKEEQCSFEEAREIFKDAERTKLFWISYSDGDQCASSPCQNGGSCKDQLQSYICFCLPAFEGRNCETHKDDQLICVNENGGCEQYCSDHTGTKRSCRCHEGYSLLADGVSCTPTVEYPCGKIPILEKRNASKPQGR
chain 2: IVGGKVCPKGECPWQVLLLVNGAQLCGGTLINTIWVVSAAHCFDKIKNWRNLIAVLGEHDLSEHDGDEQSRRVAQVIIPSTYVPGTTNHDIALLRLHQPVVLTDHVVPLCLPERTFSERTLAFVRFSLVSGWGQLLDRGATALELMVLNVPRLMTQDCLQQSRKVGDSPNITEYMFCAGYSDGSKDSCKGDSGGPHATHYRGTWYLTGIVSWGQGCATVGHFGVYTRVSQYIEWLQKLMRSEPRPGVLLRAPFPSSSSKAPPPSLPSPSRLPGPSDTPILPQSSSSKAPPPSLPSPSRLPGPSDTPILPQSSSSKAPPPSLPSPSRLPGPSDTPILPQ
B1 was tested, and the Vmax of FX activation at saturation of TF with FVIIa [7] was 1.3 nM FXa/min and the k2, rate of Pefachrome FVIIa substrate cleavage by the VIIa/TF complex (mol pNA/min/mol VIIa/TF) [7] was 357.

B2: Tissue factor (TF) (receptor, UniProt P13726 33-295, looked up)
chain: SGTTNTVAAYNLTWKSTNFKTILEWEPKPVNQVYTVQISTKSGDWKSKCFYTTDTECDLTDEIVKDVKQTYLARVFSYPAGNVESTGSAGEPLYENSPEFTPYLETNLGQPTIQSFEQVGTKVNVTVEDERTLVRRNNTFLSLRDVFGKDLIYTLYYWKSSSSGKKTAKTNTNEFLIDVDKGENYCFSVQAVIPSRTVNRKSTDSPVECMGQEKGEFREIFYIIGAVVFVVIILVIILAISLHKCRKAGVGQSWKENSPLNVS
In the case of B2, the Kd [8] is reported as 3 pM.
